Measured values as given in patent publication US12637513B2, “Method of treating cancer by administering an inhibitor of erythropoietin receptor activity comprising either erythropoietin receptor or erythropoietin protein” (ImmunEdge, Inc., priority 2022, dated 2026).

Experiments:
EPOR (UT-7 cells) = target: T1, EPOR (UT-7 cells) (Homo sapiens, UniProt P19235); assay: Flow-based phosphorylated Stat5 assay, blocking by anti-EPOR antibodies; format: cell-based; details: 20 μg/ml antibody; 0.1 μg/ml recombinant human EPO
T1 construct: endogenous in cells; host or cells: UT-7 human leukemia cells
T1 sequence (P19235 25-508): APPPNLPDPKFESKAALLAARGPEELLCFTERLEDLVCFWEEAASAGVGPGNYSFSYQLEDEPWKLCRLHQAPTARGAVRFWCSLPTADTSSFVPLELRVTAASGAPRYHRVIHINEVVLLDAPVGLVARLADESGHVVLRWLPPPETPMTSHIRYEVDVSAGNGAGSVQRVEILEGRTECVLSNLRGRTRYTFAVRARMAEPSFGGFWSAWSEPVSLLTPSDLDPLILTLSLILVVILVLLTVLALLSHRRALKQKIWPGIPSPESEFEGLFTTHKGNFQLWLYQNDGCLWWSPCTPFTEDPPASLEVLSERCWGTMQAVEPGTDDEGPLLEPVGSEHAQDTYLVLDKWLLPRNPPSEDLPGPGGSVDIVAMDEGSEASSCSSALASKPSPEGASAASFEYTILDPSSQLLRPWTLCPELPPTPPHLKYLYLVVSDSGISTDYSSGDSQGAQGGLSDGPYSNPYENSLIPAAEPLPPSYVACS
Method: EPOR activation leads to phosphorylation of Stat5. A flow-based assay on phosphorylated Stat5 was set up to test the blocking activities of anti-EPOR antibodies. The UT-7 cells were cultured without GM-CSF for overnight before the EPO stimulation. 3×10^6 cells/ml were incubated with 20 μg/ml of anti-EPOR for 15 minutes before stimulation with 0.1 μg/ml of recombinant human EPO (Peprotech®, Cat #100-64) for 10 minutes at 37° C. The cells were fixed immediately with fixation buffer (Cytofix™ buffer; BD Biosciences, Cat #554655) and permeabilized with methanol. After washing, cells were stained with PE labeled anti-Stat5 (BD Biosciences, Cat #612567) and subjected to flow cytometry analysis.

[1] = target: T2, EPO/EPOR interaction (EPOR-CD131-Fc and EPO) (Homo sapiens, UniProt P19235+P32927); assay: Octet blocking of the EPO/EPOR interaction by hybridoma supernatants; format: binding; details: EPO 10 nM
T2 construct: Chimeric Fc fusion proteins of the extracellular domains of human EPOR and human CD131; purchased Sino Biological CT010-H02H
T2 sequence (P19235 25-250 limits assumed): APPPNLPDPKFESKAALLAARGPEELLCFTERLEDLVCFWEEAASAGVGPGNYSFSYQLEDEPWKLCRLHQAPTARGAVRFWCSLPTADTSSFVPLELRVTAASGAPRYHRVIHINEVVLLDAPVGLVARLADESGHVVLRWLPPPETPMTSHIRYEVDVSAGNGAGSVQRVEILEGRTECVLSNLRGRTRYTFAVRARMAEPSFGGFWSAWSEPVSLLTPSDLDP
T2 sequence (P32927 17-443 limits assumed): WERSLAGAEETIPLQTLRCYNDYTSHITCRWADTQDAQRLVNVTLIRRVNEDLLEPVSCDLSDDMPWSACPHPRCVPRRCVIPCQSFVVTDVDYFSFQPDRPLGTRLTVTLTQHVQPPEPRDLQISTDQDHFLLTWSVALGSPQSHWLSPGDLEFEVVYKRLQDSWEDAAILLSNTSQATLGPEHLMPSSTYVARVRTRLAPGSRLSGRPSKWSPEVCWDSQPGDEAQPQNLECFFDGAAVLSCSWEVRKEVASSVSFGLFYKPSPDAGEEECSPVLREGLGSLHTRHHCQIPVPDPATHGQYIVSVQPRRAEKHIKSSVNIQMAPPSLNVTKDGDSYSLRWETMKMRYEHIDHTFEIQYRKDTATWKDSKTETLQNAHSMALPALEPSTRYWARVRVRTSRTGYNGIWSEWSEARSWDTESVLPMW

293T/EPOR cells = target: T3, 293T/EPOR cells (Homo sapiens, UniProt P19235); assay: Staining of 293T/EPOR cells with purified antibodies (flow cytometry); format: binding
T3 construct: expressed in transfected cells; host or cells: 293T cells expressing hEPOR
T3 sequence (P19235 25-508): T1 sequence (P19235 25-508)
Method: The purified antibodies were used to stain the human leukemia UT-7 cells, 293T/EPOR, 293T/CD131, and 293T/EPOR/CD131 cells to confirm antigen binding. The UT-7 cells were maintained in Roswell Park Memorial Institute (RPMI) with 10% Fetal Bovine Serum (FBS) and 5 ng/ml of recombinant human GM-CSF (Peprotech®, Cat #300-03). The 293T cells expressing hEPOR, hCD131, or both were maintained in Dulbecco's Modified Eagle Medium (DMEM) with 10% FBS. 1×10^6 cells/ml were incubated with purified hybridoma clones M2 and M41 at a 3-fold dilution series starting from 20 μg/ml for 30 minutes at 4° C. After washing, the cells were incubated with PE labeled secondary antibody and subjected to flowcytometric analysis. […] The binding profiles of the 293T/EPOR/CD131 cells are similar except the peak MFIs around 1500, half of that of the 293T/EPOR cells (FIG. 29B).

EPOR-Fc = target: T4, EPOR-Fc (Homo sapiens, UniProt P19235); assay: Bio-layer interferometry (Octet) binding of hybridoma antibodies to EPOR-Fc; details: hybridoma supernatants; 30 nM soluble receptor
T4 construct: The extracellular domains of EPOR or CD131 are produced as soluble Fc fusion proteins; purchased Sino Biological 10707-H02H
T4 sequence (P19235 25-250 limits assumed): T2 sequence (P19235 25-250 limits assumed)
Text: (§1) The B cells from ATX-GK mice were fused with mouse myeloma cells to generate hybridoma. The hybridoma cells were screened twice. In the first screening, 293 cells expressing human EPOR, human CD131, or both were used as the primary screen. 87 hybridoma antibodies have been isolated by positive staining on 293T cells expressing human EPOR (hEPOR), human CD131 (hCD131), or both, with the hybridoma supernatants (Table 11 and FIG. 17). Expression of EPOR and CD131 was confirmed by flow cytometry with Phycoerythrin (PE)-labeled anti-EPOR (R&D Systems, Cat #FAB307P) and Alexa Fluor® 647 (AF647)-labeled anti-CD131 (BD Biosciences, Cat #564191), respectively (FIG. 28B). All hybridoma clones were purified and sequenced. Binding kinetics with soluble hetero-EPOR (EPOR-CD131-Fc), soluble EPO receptor subunit of hetero-EPOR (EPOR-Fc), and soluble CD131 subunit of hetero-EPOR (CD131-Fc) were measured using bio-layer interferometry (Octet®) by capturing the hybridoma antibodies in the supernatants on biosensors coated with anti-mouse Fc first and dipping the biosensors into the solutions containing 30 nM of the soluble receptor Fc fusion proteins. The supernatants were also used to block the interaction between EPO and EPOR. The soluble EPOR-CD131-Fc was first captured on biosensors coated with anti-human Fc and then dipped into 10 nM of EPO with or without the hybridoma supernatants. […]

[2] = target: T5, soluble hetero-EPOR (EPOR-CD131-Fc) (Homo sapiens, UniProt P19235+P32927); assay: Bio-layer interferometry (Octet) binding of hybridoma antibodies to EPOR-CD131-Fc; details: hybridoma supernatants; 30 nM soluble receptor
T5 construct: Chimeric Fc fusion proteins of the extracellular domains of human EPOR and human CD131; purchased Sino Biological CT010-H02H
T5 sequence (P19235 25-250 limits assumed): T2 sequence (P19235 25-250 limits assumed)
T5 sequence (P32927 17-443 limits assumed): T2 sequence (P32927 17-443 limits assumed)
Text: as §1

B1: EPORab - M2: hybridoma antibody clone, VH/VK in Table 10 (antibody, V domains shown)
VH: QVQLVESGGGLVKPGGSLRLSCAASGFTFSDSYMSWIRQAPGKGLEWVSYISNSGSYMYYADSVKGRFTISRDNAKNSLYLQMNNLRAEDTAVYYCARDKLGIGDYWGQGTLVTVSS
VL: DIQMTQSPSSLSASVGDRVTITCRASQGIRNDLGWFQQKPGKAPKRLIYAASRLQSGVPSRFSGSGSGTEFTLTISSLQPEDFATYCCLQHHTYPPTFGQGTKVEIK
blocking of Stat5 phosphorylation (EPOR (UT-7 cells)): complete blocking | blocking of the EPO/EPOR interaction [1]: nearly complete blocking | mean or median fluorescence intensity (MFI) (293T/EPOR cells; 27 ng/ml purified antibody, 293T/EPOR cells): ~100% | binding to 293T/EPOR cells (293T/EPOR cells; 20 μg/ml purified antibody): robust binding activities | binding to EPOR-Fc (EPOR-Fc): potent binding | binding to EPOR-CD131-Fc [2]: potent binding
